“Also recorded” adds a separate entry of the source.
Key:
SNU-5 cells [1] = test: CellTiter-Glo luminescent cell viability assay; format: cell-based, human; settings: SNU-5, 72 hrs; mAb 10 μg/mL, SU11274 5 μM
Method: (§1) In order to determine if these antibodies have any physiological effects on tumour cells, 10 μg/mL of mAb was added to SNU-5 cells. […] This indicates SU11274 mode of mechanism is by activation of caspase which in turn result in apoptosis of SNU-5 tumour cells.
CellTiter-Glo® luminescent cell viability assay and Caspase-Glo® 3/7 Assay (Promega, U.S.A.) were used to determine cell viability and caspase activation respectively. SNU-5 cells (1×10^5 cells) were seeded in each 96-well and treated for 72 hrs before analysis. Cell viability and caspase activation were performed according to manufacturer's protocol. Luminescence was read using the EnVision plate reader (PerkinElmer, U.S.A.).

SNU-5 cells [2] = test: Cell growth by cell count (ADAM cell counter); format: cell-based, human; settings: SNU-5, 10 μg/mL mAb, 72 hours post treatment
Method: as §1
Cells were seeded and treated with anti-α-chain c-Met monoclonal antibodies for 72 hrs. Cells were harvested and counted using the automated ADAM cell counter (Digital Bio, Korea).

SNU-5 cells [3] = test: Annexin V staining (cell death); format: cell-based, human
SNU-5 cells [4] = test: Immunofluorescence of antibody internalisation; format: cell-based, human; settings: SNU-5, 10 μg/mL mAb
Method: In order to determine if mAb 2 and 13 were internalised into the cell upon antibody binding, SNU-5 cells were incubated with 10 μg/mL of anti-α-chain monoclonal antibody. Monoclonal antibody treated cells were fixed and permeablised. Bound and internalised antibody was detected by anti-mouse Alexa Fluor®488-conjugated secondary antibody. Antibody localisation was observed by confocal microscopy.
10 μg/mL of anti-α-chain monoclonal antibody were incubated with live SNU-5 cells for 1 hr at 4° C. or 37° C. Antibody-treated cells were washed once with PBS and deposited onto polylysine-coated slides (Thermo Scientific, #5991056) using the Thermo Shandon Cytospin 3 Cytofuge (Thermo Scientific) at 800 rpm for 5 mins and fixed immediately in 4% paraformaldehyde. Cells were then blocked and permeablised in PBS containing 0.4% Triton X-100 and 5% BSA. Bound anti-α-chain c-Met antibodies were detected using anti-mouse Alexa Fluor®488-conjugated secondary antibody. Phallodin was added together with the secondary antibodies. Cells were washed before staining with 4′,6′-diamidino-2-phenylindole (DAPI) and mounted with Hydromount (National Diagnostics, U.S.A.) containing 2.5% DABCO (1,4-Diazabicyclo-[2.2.2]octane) (Sigma-Aldrich) as an anti-bleaching agent Immunofluorescence was observed using Nikon Eclipse E600 microscope.

[5] = biological target: T1, native c-Met on live SNU-5 cells (Homo sapiens, UniProt P08581); test: Temperature sensitivity of antibody binding by flow cytometry; settings: live SNU-5, 10 μg/mL mAb, 1 hr
T1 construct: native c-Met expressed on the cell surface of SNU-5 cells; host or cells: SNU-5
T1 sequence (P08581 25-1390): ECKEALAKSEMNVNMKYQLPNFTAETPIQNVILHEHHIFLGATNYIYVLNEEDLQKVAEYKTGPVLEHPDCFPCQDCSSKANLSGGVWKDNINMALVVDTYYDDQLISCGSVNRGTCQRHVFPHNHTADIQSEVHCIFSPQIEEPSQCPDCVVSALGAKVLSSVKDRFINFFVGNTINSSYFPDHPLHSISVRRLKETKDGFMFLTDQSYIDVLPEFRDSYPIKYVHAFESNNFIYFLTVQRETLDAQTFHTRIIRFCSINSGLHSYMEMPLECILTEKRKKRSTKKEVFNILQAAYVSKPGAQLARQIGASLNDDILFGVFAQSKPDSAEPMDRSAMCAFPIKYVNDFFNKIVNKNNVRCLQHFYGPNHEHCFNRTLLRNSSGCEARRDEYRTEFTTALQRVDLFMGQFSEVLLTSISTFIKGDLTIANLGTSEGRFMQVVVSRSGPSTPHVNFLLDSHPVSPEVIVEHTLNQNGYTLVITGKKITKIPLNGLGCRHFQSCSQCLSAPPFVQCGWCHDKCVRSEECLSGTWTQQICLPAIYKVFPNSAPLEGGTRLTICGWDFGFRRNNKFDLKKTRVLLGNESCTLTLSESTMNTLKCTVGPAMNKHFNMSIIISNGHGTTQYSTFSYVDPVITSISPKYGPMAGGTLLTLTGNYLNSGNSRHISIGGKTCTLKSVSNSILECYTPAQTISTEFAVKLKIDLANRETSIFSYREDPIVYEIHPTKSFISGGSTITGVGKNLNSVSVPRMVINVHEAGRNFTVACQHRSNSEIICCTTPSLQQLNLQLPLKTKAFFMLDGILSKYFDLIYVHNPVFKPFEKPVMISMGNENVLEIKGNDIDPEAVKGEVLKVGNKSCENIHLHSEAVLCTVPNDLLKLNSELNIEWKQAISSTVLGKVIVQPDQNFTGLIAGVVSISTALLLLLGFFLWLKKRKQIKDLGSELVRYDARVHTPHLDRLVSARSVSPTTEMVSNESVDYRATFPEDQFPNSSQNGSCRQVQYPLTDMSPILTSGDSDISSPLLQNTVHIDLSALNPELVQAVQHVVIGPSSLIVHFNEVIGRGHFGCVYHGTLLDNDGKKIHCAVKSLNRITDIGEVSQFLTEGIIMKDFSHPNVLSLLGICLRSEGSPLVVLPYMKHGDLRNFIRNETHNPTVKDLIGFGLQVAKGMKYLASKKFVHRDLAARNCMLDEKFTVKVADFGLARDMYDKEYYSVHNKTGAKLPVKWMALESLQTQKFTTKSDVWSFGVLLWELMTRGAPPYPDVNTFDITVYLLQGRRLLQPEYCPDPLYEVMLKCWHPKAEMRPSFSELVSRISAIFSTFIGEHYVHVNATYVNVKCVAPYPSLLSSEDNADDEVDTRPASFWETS
Method: To determine if temperature affects the binding affinity of anti-α-chain monoclonal antibody to native c-Met, mAb 2, 13, 11 and 18 were incubated with live SNU-5 cells at 4° C. or 37° C. Binding of monoclonal antibody to native c-Met expressed on the cell surface of live SNU-5 cells was detected using anti-mouse secondary antibody conjugated with Alexa Fluor®488 dye and analysed by flow cytometry. Antibody binding, which correlates with fluorescence intensity, was compared at the different temperatures. […] It is plausible that the reduction of antibody binding is due to the unavailability of antibody's epitope on native c-Met expressed on live SNU-5 cells. c-Met is a dynamic protein at normal physiological temperature and becomes rigid at low temperature, causing certain epitopes to be obscured.
10 μg/mL of anti-α-chain monoclonal antibody were incubated with live SNU-5 cells for 1 hr at 4° C. or 37° C. Cells were harvested and washed once in cold PBS. Antibody binding to live cells was determined by Alexa Fluor®488-conjugated anti-mouse secondary antibodies (Invitrogen #A11029). Cells were resuspended in 1% BSA/PBS and analysed by flow cytometry.

[6] = biological target: T1, native c-Met on live SNU-5 cells; test: Flow cytometry of antibody binding to live SNU-5 cells; settings: 1 μg/mL mAb, FITC secondary antibody
Method: Flow cytometry was used to determine if our monoclonal antibodies could bind to native c-Met on live cells. SNU-5 cells were incubated with 1 μg/mL of monoclonal antibody. Binding of anti-α-chain c-Met monoclonal antibodies to native c-Met expressed on the cell surface of SNU-5 cells was detected using anti-mouse secondary antibody conjugated with FITC dye. T47D, a human breast cancer cell line expressing low levels of c-Met, was used in this assay to determine if the antibodies bind non-specifically to the cell surface.
SNU-5 cells (1×10^6 cells) were washed once in cold PBS before blocking in 1% BSA/PBS. Cells were washed twice before incubating with anti-α-chain c-Met monoclonal antibodies. 1 μg/mL anti-α-chain monoclonal antibodies were used. Cells were incubated with goat anti-mouse IgG FITC-conjugated secondary antibodies (Invitrogen) and finally resuspended in 1% BSA/PBS. Flow cytometry was performed using Becton Dickinson (U.S.A.) FACScan. Cell Quest (Becton Dickinson) and FlowJo (Tree Star Inc., U.S.A.) software was used for data analysis.

B1: mAb 2: murine bivalent anti-α-chain c-Met monoclonal antibody, IgG1, kappa; CDRs SEQ ID NO: 2-7; epitope IEE and CPDC (antibody, listed as Homo sapiens)
heavy: QVQLKESGGGLVQPGGSLTLSCATSGFTFTDHYMSWVRQPPGKALEWLAFIRNKAKGYTTEYNASVRGRFTISRDNSQNIVYLQMNTLRTEDSATYYCARDGVGIAYWGQTLVTVSAAKTTPPSVYPLAP
light: SIVMTQSPLSLPVSLGDQASISCRSSQSLENINGNTYKNWYFQKPGQSPQLLIYRVSNRVSGVLDRFSGSGSGTDFTLKITRVEAEDLGVYFCLQVTHVPWTFGGGTKLEIKRADAAPTKSIS
**Q.** Which cell viability (SNU-5 cells [1]) does the source give for B1 here?
**A.** reduced cell viability

**Q.** What about the “cell growth (cell count)” value (SNU-5 cells [2]) of the same molecule?
**A.** strongest cell growth reduction; also recorded: reduction of SNU-5 cell growth; also recorded: most effective in reducing cell proliferation

**Q.** And the “cell death (annexin V staining)” value (SNU-5 cells [3])?
**A.** do not cause cell death

**Q.** And the “internalisation into the cell” value (SNU-5 cells [4])?
**A.** internalised upon binding to c-Met; also recorded: internalised into the tumour cell

**Q.** What about the “antibody localisation at 4° C.” value (SNU-5 cells [4]; 1 hr, 4° C.) of the same molecule?
**A.** localised on the cell membrane with diffused cytoplasmic staining

**Q.** And the “antibody localisation at 37° C.” value (SNU-5 cells [4]; 1 hr, 37° C.)?
**A.** increase staining was observed in the cytoplasm

**Q.** What about the “change of antibody binding between 4° C. and 37° C.” value [5] of the same molecule?
**A.** most drastic peak shift; also recorded: temperature sensitive

**Q.** What about the “binding to native c-Met (fluorescence intensity)” value [6] of the same molecule?
**A.** strongest fluorescence intensity; also recorded: strongest binding; also recorded: highest fluorescence staining; also recorded: high affinity and specificity; also recorded: strongly
